Assay results taken from publication PMC10067955.

Biological target: NcsA from Methanococcus maripaludis (Methanococcus maripaludis)
Assay: SEC; apo-MmNcsA on a gel filtration column calibrated with protein standards

stoichiometry N: 2
Substance: NcsA from Methanococcus maripaludis (enzyme)
